# In patent US9308238B2, “Compositions and methods for modulating EMT and uses thereof” (Whitehead Institute for Biomedical Research, priority 2010, dated 2016):
# Experiments:
# HMLE^24+ cells [1] = assay: Mammosphere assay, HMLE^24+ cells after 14 day treatment; format: cell-based, human
# Description: (§1) FIGS. 5A-5H. Concomitant stimulation of Wnt and TGF-beta pathways allows HMLE^24+ cells to enter into a mesenchymal and SC-like state. (FIG. 5A) RT-PCR: N-Cadherin, Zeb1 and Zeb2, L32 was loading control, n=3. Prior RNA isolation, HMLE^24+-shGFP or -shSFRP1 (stable knockdown of SFRP1, FIG. 12A) cells were treated for 3 days with daily doses of indicated factors: anti-DKK1 antibody (10 μg/ml), anti-E-Cadherin antibody (1 μg/ml), TGF-beta 1 (5 ng/ml), Wnt5a (250 ng/ml), (FIG. 5B) Brightfield microscopy: images of control, TGF-beta- and iEMT-cocktail treated HMLE^24+ cells after 14 days of treatment as indicated (see also FIG. 12D). (FIG. 5C) RT-PCR: Zeb1, Zeb2, E-Cadherin and N-Cadherin, L32 was loading control, n=3. After 14 day treatment, cells were expanded in absence of further stimulation for 4 passages. Shown are PBS-treated control HMLE^24+-shGFP and HMLE^24+-shSFRP1 cells, two HMLE^24+-shGFP cultures treated with TGF-beta 1 (TGF-β-a and -b), two HMLE^24+-shSFRP1 cultures treated with the iEMT-cocktail (iEMT-a and -b). […] (FIG. 5G) Lung metastasis: cells expanded for 8 passages after cessation of treatment as described in (C) were transformed with RAS; 1.0×10^5 cells were injected into the mammary fat pads of mice; GFP-labeled metastases on the surface of the lungs were quantified; *control vs. all other groups, p<0.05, n=5 mice/group. […]
# HMLE^24+ cells [2] = assay: Flow cytometry of CD44/CD24, HMLE^24+ cells after 14 day treatment; format: cell-based, human; conditions: control 0.2%
# Description: as §1, with “passages.” for “passages. Shown are PBS-treated control HMLE^24+-shGFP and HMLE^24+-shSFRP1 cells, two HMLE^24+-shGFP cultures treated with TGF-beta 1 (TGF-β-a and -b), two HMLE^24+-shSFRP1 cultures treated with the iEMT-cocktail (iEMT-a and -b).”
# Fluorescent activated cell sorting (FACS) and flow cytometry. […] Samples were sorted on a BD FACSAria SORP and analyzed on a BD LSRII using BD FACSDiva Software (BD Biosciences).
# [3] = system: RAS-transformed HMLE cells; assay: Lung metastasis of RAS-transformed treated HMLE cells from mammary fat pads; format: in vivo; conditions: cells implanted into mammary fat pads of mice
# Description: as §1, with “passages.” for “passages. Shown are PBS-treated control HMLE^24+-shGFP and HMLE^24+-shSFRP1 cells, two HMLE^24+-shGFP cultures treated with TGF-beta 1 (TGF-β-a and -b), two HMLE^24+-shSFRP1 cultures treated with the iEMT-cocktail (iEMT-a and -b).”
# Animal studies. […] Lung surface metastases were counted using a fluorescent microscope within 3 hr of specimen isolation.
# HTwist and MSP cells = assay: Mammosphere assay, HTwist and MSP cells; format: cell-based, human
# Description: FIGS. 10A-10E. […] (FIG. 10E) Mammosphere Assay: HTwist and MSP were treated daily during mammosphere formation (5 days) with BMP4 (0.5 μg/ml), SB431542 (10 μM) or a combination of both, n(mammospheres)/1000 cells, n=6.
# (§2) Mammosphere and tumorsphere assay. Assays were performed as previously described with modifications (Dontu et al., 2003): 1000 cells/well were seeded in 96-well ultra-low adhesion plates (Corning) in MEGM medium containing 1.3% methylcellulose (Stem Cell Technologies) supplemented with 20 ng/ml EGF, 10 ng/ml bFGF (both Sigma) and B27 (Gibco). Primary spheres were dissociated by trypsinization and replated for secondary sphere formation after a period of 5-7 days.
# primary MECs = assay: Proliferation of primary MECs; format: cell-based, human; conditions: data not shown
# From the text: We also undertook to test whether the autocrine loops operating in HTwist and MSP cells enabled basal MECs to maintain their self-renewal and migratory abilities. […] In addition, we blocked autocrine Wnt signaling through application of recombinant SFRP1. After a 5-day, daily treatment with both TGF-beta inhibitors or SFRP1 in monolayer cultures, basal cells were submitted to migration and mammosphere assays in the absence of further treatment.
# Primary mammary epithelial cell culture. Single-cell suspensions of primary human mammary epithelial cells (MECs) were generated from reduction mammoplasties of pre-menopausal women as previously described (Stingl et al., 2001), Data from three donors are included in this study. Primary MECs were cultured on collagen I-coated plates (Millipore) in MEGM medium (Lonza) supplemented with 1% Fetal Bovine Serum in a humidified 4% O2, 5% CO2, atmosphere.
# MSP cells = assay: Mammosphere assay, MSP cells; format: cell-based, human
# Description: FIGS. 3A-3E. Autocrine Signaling controls migration and mammosphere formation.
# as §2
# [4] = added daily for 5 days (FIG. 3D)
molecule,measurement,setting,value
"TGF-beta 1: recombinant TGF-beta 1 protein, used at 5 ng/ml",increase in mammosphere formation vs untreated control cells,HMLE^24+ cells [1],10 fold
same,proportion of CD44high/CD24low-negative cells,HMLE^24+ cells [2],1.5%
same,lung metastatic foci of RAS-transformed treated cells,[3],only weakly metastatic
"BMP4: Recombinant BMP4 protein obtained from Stemgent (protein, UniProt P12644 293-408, looked up) Bone morphogenetic protein 4: SPKHHSQRARKKNKNCRRHSLYVDFSDVGWNDWIVAPPGYQAFYCHGDCPFPLADHLNSTNHAIVQTLVNSVNSSIPKACCVPTELSAISMLYLDEYDKVVLKNYQEMVVEGCGCR",reduction of primary mammosphere formation,HTwist and MSP cells; [4],60%
same,reduction of secondary sphere formation,"HTwist and MSP cells; both cell lines, treated during primary sphere formation only",90%
same,effect on proliferation of primary MECs,primary MECs,strong anti-proliferative effect
"SFRP1: Recombinant human SFRP1 protein (R&D Systems), secreted decoy receptor binding canonical and non-canonical Wnt ligands (protein, UniProt Q8N474 32-314, looked up) Secreted frizzled-related …: SEYDYVSFQSDIGPYQSGRFYTKPPQCVDIPADLRLCHNVGYKKMVLPNLLEHETMAEVKQQASSWVPLLNKNCHAGTQVFLCSLFAPVCLDRPIYPCRWLCEAVRDSCEPVMQFFGFYWPEMLKCDKFPEGDVCIAMTPPNATEASKPQGTTVCPPCDNELKSEAIIEHLCASEFALRMKIKEVKKENGDKKIVPKKKKPLKLGPIKKKDLKKLVLYLKNGADCPCHQLDNLSHHFLIMGRKVKSQYLLTAIHKWDKKNKEFKNFMKKMKNHECPTFQSVFK",reduction of primary mammosphere number,MSP cells; [4],40%
same,reduction of secondary sphere formation,MSP cells; treated during primary sphere formation only,80%
